In article PMC4570711:

biological target: human TrkA receptor (human) (UniProt P04629)
Sequence of UniProt P04629 (P04629 33-796): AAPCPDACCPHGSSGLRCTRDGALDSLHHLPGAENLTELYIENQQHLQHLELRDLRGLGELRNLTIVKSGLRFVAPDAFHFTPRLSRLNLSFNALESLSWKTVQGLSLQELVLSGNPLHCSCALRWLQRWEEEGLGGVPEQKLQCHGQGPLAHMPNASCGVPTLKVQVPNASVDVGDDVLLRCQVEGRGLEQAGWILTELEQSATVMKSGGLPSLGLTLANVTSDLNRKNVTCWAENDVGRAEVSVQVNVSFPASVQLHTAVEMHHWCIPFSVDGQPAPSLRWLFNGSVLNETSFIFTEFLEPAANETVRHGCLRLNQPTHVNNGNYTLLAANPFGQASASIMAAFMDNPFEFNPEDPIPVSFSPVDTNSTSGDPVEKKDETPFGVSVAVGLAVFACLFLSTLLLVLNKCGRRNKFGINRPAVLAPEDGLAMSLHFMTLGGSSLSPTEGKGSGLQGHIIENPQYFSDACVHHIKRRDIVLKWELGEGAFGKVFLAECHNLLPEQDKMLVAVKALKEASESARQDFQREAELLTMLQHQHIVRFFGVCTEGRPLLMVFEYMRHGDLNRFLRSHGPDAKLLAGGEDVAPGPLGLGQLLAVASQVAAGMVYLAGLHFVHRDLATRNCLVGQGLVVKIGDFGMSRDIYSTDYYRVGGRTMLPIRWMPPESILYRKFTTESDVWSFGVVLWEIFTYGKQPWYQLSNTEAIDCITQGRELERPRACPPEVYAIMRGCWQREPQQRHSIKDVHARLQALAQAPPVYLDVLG

TF1 cell proliferation, C50 (concentration of hNGF giving half of the maximum effect; 0.1–200 ng/ml) [ng/mL]	Substance
8.1	human Nerve Growth Factor P61S R100E double mutant (ligand)
4.3	human Nerve Growth Factor P61S mutant (ligand)
10.9	human Nerve Growth Factor R100E mutant ("painless" hNGF) (from UniProt P01138 122-241) (ligand)
